Test results: PMC7367873, “Dissecting the sequence determinants for dephosphorylation by the catalytic subunits of phosphatases PP1 and PP2A” (Nature Communications, 2020)

Assays:
[1] = tested on: GFP-14-3-3β and its binding proteins; assay: GFP-14-3-3β co-IP with LC-MS/MS label-free quantification, untreated versus PP1c-treated; set-up: species or system human
GFP-14-3-3β = GFP-14-3-3β co-IP with LC-MS/MS, untreated GFP-14-3-3β versus GFP control (14-3-3 interactome); format: binding, human
[2] = pairwise comparison PP1 vs untreated
[3] = pairwise comparison untreated vs GFP
[4] = PP1 vs untreated, LFQ intensities, 3 replicates each
[5] = untreated vs GFP, LFQ intensities, 3 replicates each

| Difference (log2), PP1 vs untreated [1, 2] | Molecule | Difference (log2), untreated vs GFP (GFP-14-3-3β; [3]) | further results |
| --- | --- | --- | --- |
| 0.2864 log2 | MSN (protein, UniProt P26038 2-577, looked up) Moesin: PKTISVRVTTMDAELEFAIQPNTTGKQLFDQVVKTIGLREVWFFGLQYQDTKGFSTWLKLNKKVTAQDVRKESPLLFKFRAKFYPEDVSEELIQDITQRLFFLQVKEGILNDDIYCPPETAVLLASYAVQSKYGDFNKEVHKSGYLAGDKLLPQRVLEQHKLNKDQWEERIQVWHEEHRGMLREDAVLEYLKIAQDLEMYGVNYFSIKNKKGSELWLGVDALGLNIYEQNDRLTPKIGFPWSEIRNISFNDKKFVIKPIDKKAPDFVFYAPRLRINKRILALCMGNHELYMRRRKPDTIEVQQMKAQAREEKHQKQMERAMLENEKKKREMAEKEKEKIEREKEELMERLKQIEEQTKKAQQELEEQTRRALELEQERKRAQSEAEKLAKERQEAEEAKEALLQASRDQKKTQEQLALEMAELTARISQLEMARQKKESEAVEWQQKAQMVQEDLEKTRAELKTAMSTPHVAEPAENEQDEQDENGAEASADLRADAMAKDRSEEERTTEAEKNERVQKHLKALTSELANARDESKKTANDMIHAENMRLGRDKYKTLRQIRQGNTKQRIDEFESM | 0.7577 log2 |  |
|  | ERC1 (protein, UniProt Q8IUD2 1-1116, looked up) ELKS/Rab6-interacting/CAST …: MYGSARSVGKVEPSSQSPGRSPRLPRSPRLGHRRTNSTGGSSGSSVGGGSGKTLSMENIQSLNAAYATSGPMYLSDHENVGSETPKSTMTLGRSGGRLPYGVRMTAMGSSPNIASSGVASDTIAFGEHHLPPVSMASTVPHSLRQARDNTIMDLQTQLKEVLRENDLLRKDVEVKESKLSSSMNSIKTFWSPELKKERALRKDEASKITIWKEQYRVVQEENQHMQMTIQALQDELRIQRDLNQLFQQDSSSRTGEPCVAELTEENFQRLHAEHERQAKELFLLRKTLEEMELRIETQKQTLNARDESIKKLLEMLQSKGLSAKATEEDHERTRRLAEAEMHVHHLESLLEQKEKENSMLREEMHRRFENAPDSAKTKALQTVIEMKDSKISSMERGLRDLEEEIQMLKSNGALSTEEREEEMKQMEVYRSHSKFMKNKVEQLKEELSSKEAQWEELKKKAAGLQAEIGQVKQELSRKDTELLALQTKLETLTNQFSDSKQHIEVLKESLTAKEQRAAILQTEVDALRLRLEEKETMLNKKTKQIQDMAEEKGTQAGEIHDLKDMLDVKERKVNVLQKKIENLQEQLRDKEKQMSSLKERVKSLQADTTNTDTALTTLEEALAEKERTIERLKEQRDRDEREKQEEIDNYKKDLKDLKEKVSLLQGDLSEKEASLLDLKEHASSLASSGLKKDSRLKTLEIALEQKKEECLKMESQLKKAHEAALEARASPEMSDRIQHLEREITRYKDESSKAQAEVDRLLEILKEVENEKNDKDKKIAELERQVKDQNKKVANLKHKEQVEKKKSAQMLEEARRREDNLNDSSQQLQDSLRKKDDRIEELEEALRESVQITAEREMVLAQEESARTNAEKQVEELLMAMEKVKQELESMKAKLSSTQQSLAEKETHLTNLRAERRKHLEEVLEMKQEALLAAISEKDANIALLELSSSKKKTQEEVAALKREKDRLVQQLKQQTQNRMKLMADNYEDDHFKSSHSNQTNHKPSPDQIIQPLLELDQNRSKLKLYIGHLTTLCHDRDPLILRGLTPPASYNLDDDQAAWENELQKMTRGQLQDELEKGERDNAELQEFANAILQQIADHCPDILEQVVNALEESS |  | Difference (log2), PP1 vs untreated [1, 4]: 0.3326 log2; Difference (log2), untreated vs GFP (GFP-14-3-3β; [5]): 2.543 log2 |
| 0.3073 log2 | UPF1 (protein, UniProt Q92900 1-1129, looked up) Regulator of nonsense …: MSVEAYGPSSQTLTFLDTEEAELLGADTQGSEFEFTDFTLPSQTQTPPGGPGGPGGGGAGGPGGAGAGAAAGQLDAQVGPEGILQNGAVDDSVAKTSQLLAELNFEEDEEDTYYTKDLPIHACSYCGIHDPACVVYCNTSKKWFCNGRGNTSGSHIVNHLVRAKCKEVTLHKDGPLGETVLECYNCGCRNVFLLGFIPAKADSVVVLLCRQPCASQSSLKDINWDSSQWQPLIQDRCFLSWLVKIPSEQEQLRARQITAQQINKLEELWKENPSATLEDLEKPGVDEEPQHVLLRYEDAYQYQNIFGPLVKLEADYDKKLKESQTQDNITVRWDLGLNKKRIAYFTLPKTDSGNEDLVIIWLRDMRLMQGDEICLRYKGDLAPLWKGIGHVIKVPDNYGDEIAIELRSSVGAPVEVTHNFQVDFVWKSTSFDRMQSALKTFAVDETSVSGYIYHKLLGHEVEDVIIKCQLPKRFTAQGLPDLNHSQVYAVKTVLQRPLSLIQGPPGTGKTVTSATIVYHLARQGNGPVLVCAPSNIAVDQLTEKIHQTGLKVVRLCAKSREAIDSPVSFLALHNQIRNMDSMPELQKLQQLKDETGELSSADEKRYRALKRTAERELLMNADVICCTCVGAGDPRLAKMQFRSILIDESTQATEPECMVPVVLGAKQLILVGDHCQLGPVVMCKKAAKAGLSQSLFERLVVLGIRPIRLQVQYRMHPALSAFPSNIFYEGSLQNGVTAADRVKKGFDFQWPQPDKPMFFYVTQGQEEIASSGTSYLNRTEAANVEKITTKLLKAGAKPDQIGIITPYEGQRSYLVQYMQFSGSLHTKLYQEVEIASVDAFQGREKDFIILSCVRANEHQGIGFLNDPRRLNVALTRARYGVIIVGNPKALSKQPLWNHLLNYYKEQKVLVEGPLNNLRESLMQFSKPRKLVNTINPGARFMTTAMYDAREAIIPGSVYDRSSQGRPSSMYFQTHDQIGMISAGPSHVAAMNIPIPFNLVMPPMPPPGYFGQANGPAAGRGTPKGKTGRGGRQKNRFGLPGPSQTNLPNSQASQDVASQPFSQGALTQGYISMSQPSQMSQPGLSQPELSQDSYLGDEFKSQIDVALSQDSTYQGERAYQHGGVTGLSQY | 0.2927 log2 |  |
|  | ACADM (protein, UniProt P11310 26-421, looked up) Medium-chain specific …: KANRQREPGLGFSFEFTEQQKEFQATARKFAREEIIPVAAEYDKTGEYPVPLIRRAWELGLMNTHIPENCGGLGLGTFDACLISEELAYGCTGVQTAIEGNSLGQMPIIIAGNDQQKKKYLGRMTEEPLMCAYCVTEPGAGSDVAGIKTKAEKKGDEYIINGQKMWITNGGKANWYFLLARSDPDPKAPANKAFTGFIVEADTPGIQIGRKELNMGQRCSDTRGIVFEDVKVPKENVLIGDGAGFKVAMGAFDKTRPVVAAGAVGLAQRALDEATKYALERKTFGKLLVEHQAISFMLAEMAMKVELARMSYQRAAWEVDSGRRNTYYASIAKAFAGDIANQLATDAVQILGGNGFNTEYPVEKLMRDAKIYQIYEGTSQIQRLIVAREHIDKYKN |  | Difference (log2), PP1 vs untreated ([1]; log2 difference, pairwise comparison PP1 vs untreated, label-free quantification, 3 replicates each): 2.074; Difference (log2), untreated vs GFP (GFP-14-3-3β; log2 difference, pairwise comparison untreated vs GFP, label-free quantification, 3 replicates each): -2.884 |
| 0.2613 log2 | RARS (protein, UniProt P54136 1-660, looked up) Arginine--tRNA ligase, …: MDVLVSECSARLLQQEEEIKSLTAEIDRLKNCGCLGASPNLEQLQEENLKLKYRLNILRKSLQAERNKPTKNMINIISRLQEVFGHAIKAAYPDLENPPLLVTPSQQAKFGDYQCNSAMGISQMLKTKEQKVNPREIAENITKHLPDNECIEKVEIAGPGFINVHLRKDFVSEQLTSLLVNGVQLPALGENKKVIVDFSSPNIAKEMHVGHLRSTIIGESISRLFEFAGYDVLRLNHVGDWGTQFGMLIAHLQDKFPDYLTVSPPIGDLQVFYKESKKRFDTEEEFKKRAYQCVVLLQGKNPDITKAWKLICDVSRQELNKIYDALDVSLIERGESFYQDRMNDIVKEFEDRGFVQVDDGRKIVFVPGCSIPLTIVKSDGGYTYDTSDLAAIKQRLFEEKADMIIYVVDNGQSVHFQTIFAAAQMIGWYDPKVTRVFHAGFGVVLGEDKKKFKTRSGETVRLMDLLGEGLKRSMDKLKEKERDKVLTAEELNAAQTSVAYGCIKYADLSHNRLNDYIFSFDKMLDDRGNTAAYLLYAFTRIRSIARLANIDEEMLQKAARETKILLDHEKEWKLGRCILRFPEILQKILDDLFLHTLCDYIYELATAFTEFYDSCYCVEKDRQTGKILKVNMWRMLLCEAVAAVMAKGFDILGIKPVQRM | -0.5854 log2 |  |
| 0.2696 log2 | ATP5O (protein, UniProt P48047 24-213, looked up) ATP synthase peripheral stalk …: FAKLVRPPVQVYGIEGRYATALYSAASKQNKLEQVEKELLRVAQILKEPKVAASVLNPYVKRSIKVKSLNDITAKERFSPLTTNLINLLAENGRLSNTQGVVSAFSTMMSVHRGEVPCTVTSASPLEEATLSELKTVLKSFLSQGQVLKLEAKTDPSILGGMIVRIGEKYVDMSVKTKIQKLGRAMREIV | 0.8888 log2 |  |
|  | HLTF (protein, UniProt Q14527 1-1009, looked up) Helicase-like transcription …: MSWMFKRDPVWKYLQTVQYGVHGNFPRLSYPTFFPRFEFQDVIPPDDFLTSDEEVDSVLFGSLRGHVVGLRYYTGVVNNNEMVALQRDPNNPYDKNAIKVNNVNGNQVGHLKKELAGALAYIMDNKLAQIEGVVPFGANNAFTMPLHMTFWGKEENRKAVSDQLKKHGFKLGPAPKTLGFNLESGWGSGRAGPSYSMPVHAAVQMTTEQLKTEFDKLFEDLKEDDKTHEMEPAEAIETPLLPHQKQALAWMVSRENSKELPPFWEQRNDLYYNTITNFSEKDRPENVHGGILADDMGLGKTLTAIAVILTNFHDGRPLPIERVKKNLLKKEYNVNDDSMKLGGNNTSEKADGLSKDASRCSEQPSISDIKEKSKFRMSELSSSRPKRRKTAVQYIESSDSEEIETSELPQKMKGKLKNVQSETKGRAKAGSSKVIEDVAFACALTSSVPTTKKKMLKKGACAVEGSKKTDVEERPRTTLIICPLSVLSNWIDQFGQHIKSDVHLNFYVYYGPDRIREPALLSKQDIVLTTYNILTHDYGTKGDSPLHSIRWLRVILDEGHAIRNPNAQQTKAVLDLESERRWVLTGTPIQNSLKDLWSLLSFLKLKPFIDREWWHRTIQRPVTMGDEGGLRRLQSLIKNITLRRTKTSKIKGKPVLELPERKVFIQHITLSDEERKIYQSVKNEGRATIGRYFNEGTVLAHYADVLGLLLRLRQICCHTYLLTNAVSSNGPSGNDTPEELRKKLIRKMKLILSSGSDEECAICLDSLTVPVITHCAHVFCKPCICQVIQNEQPHAKCPLCRNDIHEDNLLECPPEELARDSEKKSDMEWTSSSKINALMHALTDLRKKNPNIKSLVVSQFTTFLSLIEIPLKASGFVFTRLDGSMAQKKRVESIQCFQNTEAGSPTIMLLSLKAGGVGLNLSAASRVFLMDPAWNPAAEDQCFDRCHRLGQKQEVIITKFIVKDSVEENMLKIQNKKRELAAGAFGTKKPNADEMKQAKINEIRTLIDL |  | Difference (log2), PP1 vs untreated [1, 4]: 0.3278 log2; Difference (log2), untreated vs GFP (GFP-14-3-3β; [5]): 1.079 log2 |
